Residence time (photobleaching-corrected half-life, t1/2) data for one substance are collected here from PMC6279252.

Assay [1] concerns the target GST-Ragulator pre-incubated with GFP-tagged active-loaded Rag heterodimers (UniProt Q6IAA8). In words: single-molecule imaging on beads.
The target in assay [2] is stable Ragulator-VhH + GFP-Rag complexes (UniProt Q9Y2Q5). As to the kind of experiment: single-molecule imaging on beads.
Chain of UniProt Q9Y2Q5 (Q9Y2Q5 whole entry, looked up, one chain of several): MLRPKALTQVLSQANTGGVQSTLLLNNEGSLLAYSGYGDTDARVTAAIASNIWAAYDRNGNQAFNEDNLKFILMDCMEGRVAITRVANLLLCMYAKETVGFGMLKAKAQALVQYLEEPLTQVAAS

Regarding “Raptor-Halo^TMR (co-purified with mTOR and mLST8) (from UniProt Q8N122;P42345;Q9BVC4) (complex)”, the residence time (photobleaching-corrected half-life, t1/2) in assay [1] was found to be 3.1 s; in assay [2], 13.2 s.
